Results on 7 molecules are retold here after patent publication US20230167164A1 (IMMUNOWAKE, published 2023).

The target of experiment [1] is T1, CD8 on CD8+ T cells (human, UniProt P01732 22-235).
T1 construct: whole, on cells
The experiment in a line: FACS on CD8+ T cells.

Experiment [2] addresses T2, human IL-12 receptor complex (human, UniProt P42701 24-662; Q99665 24-862). The experiment can be described thus: cell-based or functional assay.
The target in experiment [3] is IL-23 receptor complex (UniProt P42701 24-662; Q5VWK5 24-629, limits assumed). The experiment in a line: cell-based or functional assay.
Experiment [4] deals with human PD-1 overexpressed on HEK-Blue reporter cells (human, UniProt Q15116 25-288). The experiment can be described thus: cell-based or functional assay.
In experiment [5] the target is T2, human IL-12 receptor complex. The experiment can be described thus: cell-based or functional assay. This is another data set of the same source.
Experiment [6] deals with T3, human IL-2 receptor (human, UniProt P01589 22-272; P14784 27-551; P31785 23-369).
T3 sequence (looked up) 1: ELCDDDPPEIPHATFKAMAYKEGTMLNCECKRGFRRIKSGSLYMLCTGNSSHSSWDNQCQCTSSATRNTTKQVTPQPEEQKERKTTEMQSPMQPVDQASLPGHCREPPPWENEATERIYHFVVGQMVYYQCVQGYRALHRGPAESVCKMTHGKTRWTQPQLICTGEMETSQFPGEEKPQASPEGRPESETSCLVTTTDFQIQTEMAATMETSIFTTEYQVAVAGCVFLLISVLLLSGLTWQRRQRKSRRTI
T3 sequence (looked up) 2: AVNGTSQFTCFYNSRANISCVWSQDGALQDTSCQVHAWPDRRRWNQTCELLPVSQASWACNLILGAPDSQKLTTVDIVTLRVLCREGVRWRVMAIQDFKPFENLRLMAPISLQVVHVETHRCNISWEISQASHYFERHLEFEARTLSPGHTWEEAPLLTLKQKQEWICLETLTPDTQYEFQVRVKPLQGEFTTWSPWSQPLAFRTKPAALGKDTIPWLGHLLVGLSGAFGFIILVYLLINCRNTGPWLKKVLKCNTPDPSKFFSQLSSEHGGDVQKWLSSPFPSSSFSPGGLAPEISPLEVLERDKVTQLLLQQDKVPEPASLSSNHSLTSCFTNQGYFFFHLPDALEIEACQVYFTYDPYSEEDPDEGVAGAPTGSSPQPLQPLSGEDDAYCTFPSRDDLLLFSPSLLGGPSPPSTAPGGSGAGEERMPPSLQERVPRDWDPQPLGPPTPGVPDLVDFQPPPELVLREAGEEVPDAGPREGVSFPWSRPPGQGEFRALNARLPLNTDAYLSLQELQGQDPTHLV
T3 sequence (looked up) 3: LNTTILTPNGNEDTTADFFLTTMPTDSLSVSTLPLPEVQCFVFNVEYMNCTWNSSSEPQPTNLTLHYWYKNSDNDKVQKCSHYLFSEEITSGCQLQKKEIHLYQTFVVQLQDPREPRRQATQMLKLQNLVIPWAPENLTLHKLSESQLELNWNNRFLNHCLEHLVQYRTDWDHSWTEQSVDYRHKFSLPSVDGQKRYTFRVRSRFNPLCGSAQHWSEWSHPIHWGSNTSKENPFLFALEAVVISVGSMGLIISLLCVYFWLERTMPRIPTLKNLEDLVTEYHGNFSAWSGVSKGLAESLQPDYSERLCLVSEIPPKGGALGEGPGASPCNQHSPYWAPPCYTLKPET
The experiment in a line: cell-based or functional assay.

Changes are numbered by the printed parent chain. Names may count otherwise.

T2 sequence (Q99665 24-862, chain 2 of 2, other chains not shown): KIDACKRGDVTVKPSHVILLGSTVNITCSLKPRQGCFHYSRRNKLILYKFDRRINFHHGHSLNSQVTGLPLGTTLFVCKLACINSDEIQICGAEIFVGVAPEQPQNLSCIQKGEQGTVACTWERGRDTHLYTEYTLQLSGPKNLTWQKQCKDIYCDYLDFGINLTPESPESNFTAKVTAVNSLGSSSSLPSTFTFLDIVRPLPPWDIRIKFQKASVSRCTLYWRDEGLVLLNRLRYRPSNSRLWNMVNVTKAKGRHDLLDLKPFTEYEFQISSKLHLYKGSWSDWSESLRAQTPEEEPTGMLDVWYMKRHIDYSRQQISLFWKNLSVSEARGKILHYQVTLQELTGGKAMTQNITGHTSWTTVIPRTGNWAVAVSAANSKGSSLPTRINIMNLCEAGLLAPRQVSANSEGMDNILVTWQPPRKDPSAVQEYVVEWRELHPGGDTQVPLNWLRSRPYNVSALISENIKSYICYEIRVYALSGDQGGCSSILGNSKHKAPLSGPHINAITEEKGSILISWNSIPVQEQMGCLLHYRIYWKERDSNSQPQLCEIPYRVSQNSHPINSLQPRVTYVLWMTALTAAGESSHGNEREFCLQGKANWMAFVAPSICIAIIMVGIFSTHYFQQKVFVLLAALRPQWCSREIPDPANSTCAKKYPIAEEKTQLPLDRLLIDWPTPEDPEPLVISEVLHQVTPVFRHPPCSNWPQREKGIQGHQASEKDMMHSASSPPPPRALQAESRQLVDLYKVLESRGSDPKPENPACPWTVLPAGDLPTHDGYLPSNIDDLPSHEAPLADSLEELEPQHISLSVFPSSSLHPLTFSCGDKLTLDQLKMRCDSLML
human PD-1 overexpressed on HEK-Blue reporter cells, sequence (Q15116 25-288): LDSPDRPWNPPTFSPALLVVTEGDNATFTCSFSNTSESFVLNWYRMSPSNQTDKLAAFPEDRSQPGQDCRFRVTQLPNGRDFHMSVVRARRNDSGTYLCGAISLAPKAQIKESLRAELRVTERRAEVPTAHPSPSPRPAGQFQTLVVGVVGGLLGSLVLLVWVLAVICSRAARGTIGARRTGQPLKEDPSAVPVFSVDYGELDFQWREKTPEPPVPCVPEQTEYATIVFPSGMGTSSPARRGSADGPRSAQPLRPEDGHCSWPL
T1 sequence (P01732 22-235): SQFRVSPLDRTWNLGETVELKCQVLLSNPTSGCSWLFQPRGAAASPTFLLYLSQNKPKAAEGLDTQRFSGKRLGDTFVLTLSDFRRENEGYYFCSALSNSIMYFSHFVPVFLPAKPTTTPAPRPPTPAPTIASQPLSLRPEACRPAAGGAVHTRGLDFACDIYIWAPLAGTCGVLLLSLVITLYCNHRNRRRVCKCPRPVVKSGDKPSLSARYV
IL-23 receptor complex, sequence (Q5VWK5 24-629 limits assumed, chain 2 of 2, other chains not shown): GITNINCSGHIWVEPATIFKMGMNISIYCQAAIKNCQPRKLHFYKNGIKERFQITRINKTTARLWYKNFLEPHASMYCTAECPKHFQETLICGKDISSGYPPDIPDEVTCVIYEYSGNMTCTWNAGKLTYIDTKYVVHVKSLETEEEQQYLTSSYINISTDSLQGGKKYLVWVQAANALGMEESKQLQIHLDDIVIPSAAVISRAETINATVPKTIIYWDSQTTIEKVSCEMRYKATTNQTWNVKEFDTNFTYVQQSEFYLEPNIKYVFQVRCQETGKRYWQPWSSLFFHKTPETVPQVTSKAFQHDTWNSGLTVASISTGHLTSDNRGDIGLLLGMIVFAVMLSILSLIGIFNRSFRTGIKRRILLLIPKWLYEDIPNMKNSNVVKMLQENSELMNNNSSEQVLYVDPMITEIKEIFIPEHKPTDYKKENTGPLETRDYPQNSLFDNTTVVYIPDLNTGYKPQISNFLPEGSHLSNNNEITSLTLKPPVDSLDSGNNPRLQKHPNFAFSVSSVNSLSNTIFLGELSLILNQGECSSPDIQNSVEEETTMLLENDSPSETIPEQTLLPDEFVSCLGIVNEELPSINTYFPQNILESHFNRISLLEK

B1: Fab-IL-12(WT)-Fc-CD4 Ab (other)
heavy 1: QVQLQQSGPEVVKPGASVKMSCKASGYTFTSYVIHWVRQKPGQGLDWIGYINPYNDGTDYDEKFKGKATLTSDTSTSTAYMELSSLRSEDTAVYYCAREKDNYATGAWFAYWGQGTLVTVSSASTKGPSVFPLAPSSKSTSGGTAALGCLVKDYFPEPVTVSWNSGALTSGVHTFPAVLQSSGLYSLSSVVTVPSSSLGTQTYICNVNHKPSNTKVDKKVEPKSCDKPGSGIWELKKDVYVVELDWYPDAPGEMVVLTCDTPEEDGITWTLDQSSEVLGSGKTLTIQVKEFGDAGQYTCHKGGEVLSHSLLLLHKKEDGIWSTDILKDQKEPKNKTFLRCEAKNYSGRFTCWWLTTISTDLTFSVKSSRGSSDPQGVTCGAATLSAERVRGDNKEYEYSVECQEDSACPAAEESLPIEVMVDAVHKLKYENYTSSFFIRDIIKPDPPKNLQLKPLKNSRQVEVSWEYPDTWSTPHSYFSLTFCVQVQGKSKREKKDRVFTDKTSATVICRKNASISVRAQDRYYSSSWSEWASVPCSGGGGSGGGGSGGGGSGGGGSGRNLPVATPDPGMFPCLHHSQNLLRAVSNMLQKARQTLEFYPCTSEEIDHEDITKDKTSTVEACLPLELTKNESCLNSRETSFITNGSCLASRKTSFMMALCLSSIYEDLKMYQVEFKTMNAKLLMDPKRQIFLDQNMLAVIDELMQALNFNSETVPQKSSLEEPDFYKTKIKLCILLHAFRIRAVTIDRVMSYLNASDKTHTCPPCPAPEDEGGPSVFLFPPKPKDTLMISRTPEVTCVVVDVSHEDPEVKFNWYVDGVEVHNAKTKPREEQYNSTYRVVSVLTVLHQDWLNGKEYKCKVSNKALPAPIEKTISKAKGQPREPQVYVYPPSREEMTKNQVSLTCLVKGFYPSDIAVEWESNGQPENNYKTTPPVLDEDGSFALVSKLTVDKSRWQQGNVFSCSVMHEALHNHYTQKSLSLSPGK
heavy 2: QVQLQQSGPEVVKPGASVKMSCKASGYTFTSYVIHWVRQKPGQGLDWIGYINPYNDGTDYDEKFKGKATLTSDTSTSTAYMELSSLRSEDTAVYYCAREKDNYATGAWFAYWGQGTLVTVSSASTKGPSVFPLAPSSKSTSGGTAALGCLVKDYFPEPVTVSWNSGALTSGVHTFPAVLQSSGLYSLSSVVTVPSSSLGTQTYICNVNHKPSNTKVDKKVEPKSCDKTHTCPPCPAPEKKGGPSVFLFPPKPKDTLMISRTPEVTCVVVDVSHEDPEVKFNWYVDGVEVHNAKTKPREEQYNSTYRVVSVLTVLHQDWLNGKEYKCKVSNKALPAPIEKTISKAKGQPREPQVYVLPPSREEMTKNQVSLLCLVKGFYPSDIAVEWESNGQPENRYMTWPPVLDSDGSFFLYSKLTVDKSRWQQGNVFSCSVMHEALHNHYTQKSLSLSPGK
light: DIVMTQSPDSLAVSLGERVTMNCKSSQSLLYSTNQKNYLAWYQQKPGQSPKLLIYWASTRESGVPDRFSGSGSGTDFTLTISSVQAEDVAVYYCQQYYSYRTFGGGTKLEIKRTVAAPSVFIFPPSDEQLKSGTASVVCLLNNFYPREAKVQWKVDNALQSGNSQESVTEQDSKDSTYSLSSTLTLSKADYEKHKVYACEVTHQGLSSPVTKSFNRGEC
Consider B1, for which, in experiment [1], the binding result is reported as “no binding”. Moreover, the “IFN-γ release, % of rIL-12, activated CD8+ T cells” value in experiment [2] is 25%.

B2: Fab-IL-23(E59A)-Fc-CD4 Ab (other)
heavy 1: QVQLQQSGPEVVKPGASVKMSCKASGYTFTSYVIHWVRQKPGQGLDWIGYINPYNDGTDYDEKFKGKATLTSDTSTSTAYMELSSLRSEDTAVYYCAREKDNYATGAWFAYWGQGTLVTVSSASTKGPSVFPLAPSSKSTSGGTAALGCLVKDYFPEPVTVSWNSGALTSGVHTFPAVLQSSGLYSLSSVVTVPSSSLGTQTYICNVNHKPSNTKVDKKVEPKSCDKPGSGIWELKKDVYVVELDWYPDAPGEMVVLTCDTPEEDGITWTLDQSSEVLGSGKTLTIQVKAFGDAGQYTCHKGGEVLSHSLLLLHKKEDGIWSTDILKDQKEPKNKTFLRCEAKNYSGRFTCWWLTTISTDLTFSVKSSRGSSDPQGVTCGAATLSAERVRGDNKEYEYSVECQEDSACPAAEESLPIEVMVDAVHKLKYENYTSSFFIRDIIKPDPPKNLQLKPLKNSRQVEVSWEYPDTWSTPHSYFSLTFCVQVQGKSKREKKDRVFTDKTSATVICRKNASISVRAQDRYYSSSWSEWASVPCSGGGGSGGGGSGGGGSGGGGSGRAVPGGSSPAWTQCQQLSQKLCTLAWSAHPLVGHMDLREEGDEETTNDVPHIQCGDGCDPQGLRDNSQFCLQRIHQGLIFYEKLLGSDIFTGEPSLLPDSPVGQLHASLLGLSQLLQPEGHHWETQQIPSLSPSQPWQRLLLRFKILRSLQAFVAVAARVFAHGAATLSPDKTHTCPPCPAPEDEGGPSVFLFPPKPKDTLMISRTPEVTCVVVDVSHEDPEVKFNWYVDGVEVHNAKTKPREEQYNSTYRVVSVLTVLHQDWLNGKEYKCKVSNKALPAPIEKTISKAKGQPREPQVYVYPPSREEMTKNQVSLTCLVKGFYPSDIAVEWESNGQPENNYKTTPPVLDEDGSFALVSKLTVDKSRWQQGNVFSCSVMHEALHNHYTQKSLSLSPGK
heavy 2: B1 heavy 2
light: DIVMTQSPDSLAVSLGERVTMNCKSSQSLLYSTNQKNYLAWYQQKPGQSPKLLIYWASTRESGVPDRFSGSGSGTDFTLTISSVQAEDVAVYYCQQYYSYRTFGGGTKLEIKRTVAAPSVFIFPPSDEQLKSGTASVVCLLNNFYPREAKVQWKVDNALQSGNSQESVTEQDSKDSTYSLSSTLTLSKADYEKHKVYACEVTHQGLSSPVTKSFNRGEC
With B2, the “IFN-γ release, % of rIL-23, activated CD8+ T cells” value in experiment [3] was 2%.

B3: Fab-IL-12(E59A)-Fc-CD4 Ab (other)
heavy 1: B1 heavy 1 with E290A
heavy 2: B1 heavy 2
light: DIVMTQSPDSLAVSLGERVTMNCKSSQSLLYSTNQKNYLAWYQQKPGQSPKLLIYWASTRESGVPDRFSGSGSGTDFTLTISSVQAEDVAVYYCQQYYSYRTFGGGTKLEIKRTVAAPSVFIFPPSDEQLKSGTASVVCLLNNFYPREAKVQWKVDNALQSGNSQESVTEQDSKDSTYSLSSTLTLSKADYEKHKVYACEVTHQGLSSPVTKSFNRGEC
Consider B3, for which, in experiment [1], the binding result was “no binding”. Also, in experiment [2], the “IFN-γ release, % of rIL-12, activated CD8+ T cells” value amounted to 1.1%.

B4: Fab-IL-12(E59A/F60A)-Fc-CD4 Ab (other)
heavy 1: B1 heavy 1 with E290A, F291A
heavy 2: B1 heavy 2
light: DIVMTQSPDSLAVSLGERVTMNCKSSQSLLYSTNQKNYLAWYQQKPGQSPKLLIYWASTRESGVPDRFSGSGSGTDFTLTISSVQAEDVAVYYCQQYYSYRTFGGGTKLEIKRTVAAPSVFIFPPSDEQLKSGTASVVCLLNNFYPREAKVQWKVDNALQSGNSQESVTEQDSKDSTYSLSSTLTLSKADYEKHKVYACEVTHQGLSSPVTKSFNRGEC
In the case of B4, in experiment [1], the binding result was “no binding”. The “IFN-γ release, % of rIL-12, activated CD8+ T cells” value in experiment [2] was 0%.

B5: Fab-IL-12(F60A)-Fc-CD4 Ab (other)
heavy 1: B1 heavy 1 with F291A
heavy 2: B1 heavy 2
light: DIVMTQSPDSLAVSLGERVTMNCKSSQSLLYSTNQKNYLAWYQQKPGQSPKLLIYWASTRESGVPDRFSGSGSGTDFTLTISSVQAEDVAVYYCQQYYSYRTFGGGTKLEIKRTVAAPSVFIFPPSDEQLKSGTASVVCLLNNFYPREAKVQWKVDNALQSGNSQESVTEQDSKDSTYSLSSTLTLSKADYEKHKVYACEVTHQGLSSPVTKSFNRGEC
With B5, the binding result in experiment [1] was “no binding”. In addition, in experiment [2], the “IFN-γ release, % of rIL-12, activated CD8+ T cells” value amounted to 1.5%.

B6: IL-2(L18R/Q22E/R38D/K43E/E61R)/PD-L1(mut2)-Fc/IL-12(E59A/F60A) (Fc fusion)
chain 1: FTVTVPKDLYVVEYGSNMTIECKFPVEKQLDLAALQVYWMMEDKNIIQFVHGEEDLKVQHSSYRQRARLLKDQLSLGNAALQITDVKLQDAGVYTCLIAYKGADYKRITVKVNAPYNKINQRILVVDPVTSEHELTCQAEGYPKAEVIWTSSDHQVLSGKTTTTNSKREEKLFNVTSTLRINTTTNEIFYCTFRRLDPEENHTAELVIPELPLAHPPNERGGGGSGGGDKTHTCPPCPAPEDEGGPSVFLFPPKPKDTLMISRTPEVTCVVVDVSHEDPEVKFNWYVDGVEVHNAKTKPREEQYNSTYRVVSVLTVLHQDWLNGKEYKCKVSNKALPAPIEKTISKAKGQPREPQVYVYPPSREEMTKNQVSLTCLVKGFYPSDIAVEWESNGQPENNYKTTPPVLDEDGSFALVSKLTVDKSRWQQGNVFSCSVMHEALHNHYTQKSLSLSPGKGGGGSGGGIWELKKDVYVVELDWYPDAPGEMVVLTCDTPEEDGITWTLDQSSEVLGSGKTLTIQVKAAGDAGQYTCHKGGEVLSHSLLLLHKKEDGIWSTDILKDQKEPKNKTFLRCEAKNYSGRFTCWWLTTISTDLTFSVKSSRGSSDPQGVTCGAATLSAERVRGDNKEYEYSVECQEDSACPAAEESLPIEVMVDAVHKLKYENYTSSFFIRDIIKPDPPKNLQLKPLKNSRQVEVSWEYPDTWSTPHSYFSLTFCVQVQGKSKREKKDRVFTDKTSATVICRKNASISVRAQDRYYSSSWSEWASVPCSGGGGSGGGSGGGGSRNLPVATPDPGMFPCLHHSQNLLRAVSNMLQKARQTLEFYPCTSEEIDHEDITKDKTSTVEACLPLELTKNESCLNSRETSFITNGSCLASRKTSFMMALCLSSIYEDLKMYQVEFKTMNAKLLMDPKRQIFLDQNMLAVIDELMQALNFNSETVPQKSSLEEPDFYKTKIKLCILLHAFRIRAVTIDRVMSYLNAS
chain 2: FTVTVPKDLYVVEYGSNMTIECKFPVEKQLDLAALQVYWMMEDKNIIQFVHGEEDLKVQHSSYRQRARLLKDQLSLGNAALQITDVKLQDAGVYTCLIAYKGADYKRITVKVNAPYNKINQRILVVDPVTSEHELTCQAEGYPKAEVIWTSSDHQVLSGKTTTTNSKREEKLFNVTSTLRINTTTNEIFYCTFRRLDPEENHTAELVIPELPLAHPPNERGGGSGAPTSSSTKKTQLQLEHLRLDLEMILNGINNYKNPKLTDMLTFEFYMPKKATELKHLQCLERELKPLEEVLNLAQSKNFHLRPRDLISNINVIVLELKGSETTFMCEYADETATIVEFLNRWITFCQSIISTLTGGGGSGGGDKTHTCPPCPAPEKKGGPSVFLFPPKPKDTLMISRTPEVTCVVVDVSHEDPEVKFNWYVDGVEVHNAKTKPREEQYNSTYRVVSVLTVLHQDWLNGKEYKCKVSNKALPAPIEKTISKAKGQPREPQVYVLPPSREEMTKNQVSLLCLVKGFYPSDIAVEWESNGQPENRYMTWPPVLDSDGSFFLYSKLTVDKSRWQQGNVFSCSVMHEALHNHYTQKSLSLSPGK
With B6, in experiment [4], the “IL-2 signal transduction, % of rIL-2, HEK-IL-2-PD-1 cells” value came to 32% and the “IL-12 signal transduction, % of rIL-12, HEK-IL-12-PD-1 cells” value was determined as 27%. The “IL-12 signal transduction, % of rIL-12, HEK-IL-12 cells” value in experiment [5] stood at 2%. For the same molecule, in experiment [6], the “IL-2 signal transduction, % of rIL-2, HEK-IL-2 cells” value worked out at 3%.

B7: IL-2(R38D/K43E/E61R/Q126T)/PD-L1(mut2)-Fc/IL-12(E59A/F60A) (Fc fusion)
chain 1: B6 chain 1
chain 2: B6 chain 2 with R243L, E247Q, Q351T
Turning to B7, in experiment [4], the “IL-2 signal transduction, % of rIL-2, HEK-IL-2-PD-1 cells” value is 31% and the “IL-12 signal transduction, % of rIL-12, HEK-IL-12-PD-1 cells” value was determined as 30%. Moreover, in experiment [5], the “IL-12 signal transduction, % of rIL-12, HEK-IL-12 cells” value turned out to be 1%. Besides, the “IL-2 signal transduction, % of rIL-2, HEK-IL-2 cells” value in experiment [6] came out at 3%.
